Columns and labels:
Test in all cases: EMSA
Conditions in all cases: EMSA: DNA mix 40 mM Tris pH 7.6, 2 mM EDTA, 200 mM NaCl (printed '200 M'), 20% glycerol, 0.2 mg/ml BSA, 2 mM DTT, 20 pM duplex, mixed 1:1 with enzyme in 20 mM …
[1] = system: MUTYH N238S (MBP fusion) (Homo sapiens)
[2] = system: MUTYH R241Q (MBP fusion) (Homo sapiens)
[3] = system: MUTYH R309C (MBP fusion) (Homo sapiens)
[4] = system: MUTYH V246F (MBP fusion) (Homo sapiens)
[5] = table unit header missing, 2'-fluoro-2'-deoxyadenosine opposite 8-oxoguanine
[6] = THF (abasic analog) opposite 8-oxoguanine
[7] = upper limit estimate, THF (abasic analog) opposite 8-oxoguanine

Substance: Duplex 2 fA:OG (substrate analog), 30 bp
- Kd [1, 5]: 124 pM
- Kd [2, 5]: 629 pM
- Kd [3, 5]: 246 pM
- Kd [4, 5]: 50 pM

Substance: Duplex 2 THF:OG (product analog), 30 bp
- Kd [1, 6]: 46 pM
- Kd [2, 6]: 467 pM
- Kd [3, 7]: < 10 pM
- Kd [4, 7]: < 10 pM
